Laboratory results: publication PMC6133773

Legend:
[1] = substrate: C[C@](O)(CO)[C@H](O)COP(=O)(O)O; test: Michaelis-Menten kinetics; format: biochemical, Escherichia coli; conditions: Mg2+; CTP active site; natural substrate
purified protein [2] = substrate: C[C@](O)(CO)[C@H](O)C=C(F)P(=O)(O)O; test: purified protein; conditions: Mg2+; CTP active site (alternative substrate)
purified protein [3] = substrate: C[C@](O)(CO)[C@H](O)C=CP(=O)(O)O; test: purified protein; conditions: Mg2+; CTP active site (alternative substrate)
purified protein [4] = substrate: C[C@](O)(CO)[C@H](O)CC(F)(F)P(=O)(O)O; test: purified protein; conditions: Mg2+; CTP active site (alternative substrate)
purified protein [5] = substrate: C[C@](O)(CO)[C@H](O)CCP(=O)(O)O; test: purified protein; conditions: Mg2+; CTP active site (alternative substrate)
purified protein [6] = substrate: C[C@](O)(CO)[C@H](O)C[C@H](F)P(=O)(O)O; test: purified protein; conditions: Mg2+; CTP active site (alternative substrate)

B1: IspD (Escherichia coli K-12) (protein)
chain: ATTHLDVCAVVPAAGFGRRMQTECPKQYLSIGNQTILEHSVHALLAHPRVKRVVIAISPGDSRFAQLPLANHPQITVVDGGDERADSVLAGLKAAGDAQWVLVHDAARPCLHQDDLARLLALSETSRTGGILAAPVRDTMKRAEPGKNAIAHTVDRNGLWHALTPQFFPRELLHDCLTRALNEGATITDEASALEYCGFHPQLVEGRADNIKVTRPEDLALAEFYLTRTIHQENT
- Km [1]: 100 ± 20 µM
- kcat [1]: 18.2 ± 1 s⁻¹
- kcat/Km [1]: 180000 M⁻¹ s⁻¹
- Km (purified protein [2]): 700 ± 500 µM
- Km (purified protein [3]): 4000 ± 1000 µM
- kcat (purified protein [3]): 0.09 ± 0.01 s⁻¹
- kcat/Km (purified protein [3]): 20 M⁻¹ s⁻¹
- Km (purified protein [4]): 1900 ± 700 µM
- kcat (purified protein [4]): 0.2 ± 0.0333 s⁻¹
- kcat/Km (purified protein [4]): 110 M⁻¹ s⁻¹
- Km (purified protein [5]): 1300 ± 200 µM
- Km (purified protein [6]): 1000 ± 100 µM
- kcat (purified protein [6]): 0.217 ± 0.01 s⁻¹
- kcat/Km (purified protein [6]): 220 M⁻¹ s⁻¹
